The record followed here is patent US20240108651A1 (THOMAS JEFFERSON UNIVERSITY, published 2024).

The target in this experiment is T1, human desmoglein 2 (Dsg2) on cells (human, UniProt Q14126 50-1118).
T1 construct: whole, on cells; also called huma Dsg2; hDsg2
T1 sequence (looked up): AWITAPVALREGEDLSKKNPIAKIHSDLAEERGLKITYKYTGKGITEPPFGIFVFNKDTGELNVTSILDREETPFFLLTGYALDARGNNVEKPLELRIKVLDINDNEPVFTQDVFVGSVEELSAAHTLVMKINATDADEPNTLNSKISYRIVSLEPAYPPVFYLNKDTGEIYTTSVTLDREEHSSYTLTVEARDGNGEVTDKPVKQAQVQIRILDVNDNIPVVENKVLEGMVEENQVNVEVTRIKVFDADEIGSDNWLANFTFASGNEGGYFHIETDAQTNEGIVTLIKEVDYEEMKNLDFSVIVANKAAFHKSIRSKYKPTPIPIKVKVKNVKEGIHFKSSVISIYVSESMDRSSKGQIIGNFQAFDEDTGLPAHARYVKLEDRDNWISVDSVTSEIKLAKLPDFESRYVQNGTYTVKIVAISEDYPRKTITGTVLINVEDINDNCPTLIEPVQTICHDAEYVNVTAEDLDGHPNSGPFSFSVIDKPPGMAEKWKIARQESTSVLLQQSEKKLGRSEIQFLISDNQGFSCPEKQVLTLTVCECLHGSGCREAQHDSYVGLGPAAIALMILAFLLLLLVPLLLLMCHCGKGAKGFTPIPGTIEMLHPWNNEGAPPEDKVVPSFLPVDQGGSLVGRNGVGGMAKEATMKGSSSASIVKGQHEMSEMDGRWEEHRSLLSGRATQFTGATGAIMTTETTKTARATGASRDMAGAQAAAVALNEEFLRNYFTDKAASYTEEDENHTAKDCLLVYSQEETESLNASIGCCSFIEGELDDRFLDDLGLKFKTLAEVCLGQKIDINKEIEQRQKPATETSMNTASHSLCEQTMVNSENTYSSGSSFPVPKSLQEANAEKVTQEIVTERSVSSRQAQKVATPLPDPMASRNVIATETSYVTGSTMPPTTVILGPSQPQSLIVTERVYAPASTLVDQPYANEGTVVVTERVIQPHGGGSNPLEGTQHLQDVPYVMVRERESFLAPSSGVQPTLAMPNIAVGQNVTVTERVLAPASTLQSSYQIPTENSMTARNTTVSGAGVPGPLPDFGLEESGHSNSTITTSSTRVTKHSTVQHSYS
The experiment in a line: legend of FIG. 5: Dsg2 domain scheme; immunoblot and immunostaining of A431 SCC cells. The source says:
P, Pro-region; EC, Extracellular Domain; TM, Transmembrane; IA, Intracellular Anchoring, ICS, Intracellular Cadherin Segment; LD, Linker Domain; RUD, Repeat Unit Domain; TD, Terminal Domain. 10D2 recognizes EC1 while 6D8 recognizes EC4. For FIG. 5B and FIG. 5C, A431 SCC was immunoblotted (FIG. 5B) or immunostained (FIG. 5C) with mAbs 6D8 and 10D2.

B1: mAb 6D8 (antibody, V domains shown)
VH: QIQLVQSGPELKKPGETVKISCKASGYTFTNYGMNWVKQAPGRGLKWMGWINTYTGNPTYADDFKGRFDFSLETSASTAYLQINNLKNEDMAIYFCARDRGNSFDYWGQGTTLTVSS
VL: DIQMTQSPASLSVSVGETVTITCRASENIYSNLAWYQQKQGKSPQLLVYIAINLADGVPSRFSGSGSGTQYSLKINSLQSEDFGNYYCQHFWGTPRTFGGGTKLEIK
notes: Monoclonal antibody from a hybridoma; also called 6D8 Antibody; 6D8 mAb
As to B1, the binding result is reported as “binds”.

B2: mAb 10D2 (antibody, V domains shown)
VH: EVQLQQSGPELVNPGASVKMSCKASGYSFTSYILHWVKQKPGQGLEWIGYINPYNDATKYNEKFKGKATLTSDKSSSTAYMELSSVTSEDSAVYYCCSMITTAYWAYWGQGTLVTVSA
VL: NIMMTQSPSSLTVSAGEKVTMSCKSSQSILYGSTQKNYLAWYQQKPGQSPKLLIYWASTRESGVPDRFTGSGSGTDFTLTISSVQAEDLAVYYCHQYLSSYTFGGGTKLEIK
notes: Monoclonal antibody from a hybridoma; also called 10D2 Antibody; 10D2 mAb
B2: the binding result is on record as “binds”.
